Reference: PMC3855486, “New Insights into the Phylogeny and Molecular Classification of Nicotinamide Mononucleotide Deamidases” (PLoS ONE, 2013)

Substrate: NC(=O)c1ccc[n+]([C@@H]2O[C@H](COP(=O)(O)O)[C@@H](O)[C@H]2O)c1
Assay: HPLC, decrease of NMN peak area
Assay type: biochemical, Oceanobacillus iheyensis
Conditions: 50 mM phosphate buffer pH 7.5, 37 °C, Michaelian, NMN 0.01-1 mM

B1: OiPncC (Oceanobacillus iheyensis HTE831) (protein)
chain: MKNYQAEIVAVGTELLLGQIANTNAQWLSEKLATYGINMYNHTVVGDNLERVEQAFQLAQSRSNIIIVTGGLGPTADDLTREGFQQMTGLPLVEDKESMEKIEGFFQNRGRTMTPNNRKQARVFEGSTVLNNKAGMAPGMYVHYQSCHWFFLPGVPREMKHISQEELFPFLEKVTGKQRIIQSVVLKFIGIGESTLEHTLSDLIEKQTNPTIAPLAQDQAVVIRLTARGETKQEAEAMLEQTKKLILARVGEHYFGENEESIEDIVVQQLQDLGYSISAAESITGGMFSQRLVSVTGASNVFAGSFITYQSRIKEEVLEVPSEIIHSQGVVSRACSDAMASNVTRKIQTNLGISFTGIAGPDEQEGKPVGTVYISIADGDEVVVSKQFNFTGNRNHIRDRACLKGFELIYQYLKSKS
notes: full length, 417 residues (gene misprinted as 417 bp), MocF-CinA two-domain; C-terminal His6 (pET24b), E. coli Rosetta2(DE3)
For B1, the Km was 180 ± 20 µM and the kcat was 0.38 ± 0.01 s⁻¹.
